Bounds are passed on as bounds.

Data set [1] concerns the molecule itself. Put plainly: counting of GFP bleaching steps of single spots (TIRF microscopy); live HEK-293 cells with Kv1.3-loopBAD-GFP and BirA; biotinylated channels at the cell surface immobilised with NeutrAvidin (50 nM) on biotin-collagen-coated glass; step distribution fitted to a binomial with p = 0.67.
For the next data set, the target named is T1, KCNE4-loopBAD-GFP (UniProt Q9WTW3 1-170, biotin on the loopBAD tag (BirA biotin ligase co-expressed)).
T1 construct: KCNE4; also called KCNE4-pEGFP with loopBAD; KCNE4-GFP; source: HEK-293, electroporated together with BirA, on the cell surface; not shown: loopBAD (biotin acceptor domain), N-terminal, kept
T1 sequence (looked up): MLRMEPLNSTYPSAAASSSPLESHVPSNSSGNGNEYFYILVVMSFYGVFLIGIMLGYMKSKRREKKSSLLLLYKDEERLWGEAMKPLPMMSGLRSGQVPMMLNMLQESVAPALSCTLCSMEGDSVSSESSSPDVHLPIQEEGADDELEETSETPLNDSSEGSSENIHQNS
As to the kind of experiment: counting of GFP bleaching steps of single spots (TIRF microscopy); live HEK-293 cells with KCNE4-loopBAD-GFP, Kv1.3-Apple and BirA; biotinylated KCNE4 at the cell surface immobilised with NeutrAvidin (50 nM); motionless GFP spots colocalising with Kv1.3-Apple. The conditions noted are these: partners not purified.

B1: Kv1.3-loopBAD-GFP (natural protein, UniProt P15384 1-525, looked up)
chain: MTVVPGDHLLEPEAAGGGGGDPPQGGCVSGGGCDRYEPLPPALPAAGEQDCCGERVVINISGLRFETQLKTLCQFPETLLGDPKRRMRYFDPLRNEYFFDRNRPSFDAILYYYQSGGRIRRPVNVPIDIFSEEIRFYQLGEEAMEKFREDEGFLREEERPLPRRDFQRQVWLLFEYPESSGPARGIAIVSVLVILISIVIFCLETLPEFRDEKDYPASPSQDVFEAANNSTSGASSGASSFSDPFFVVETLCIIWFSFELLVRFFACPSKATFSRNIMNLIDIVAIIPYFITLGTELAERQGNGQQAMSLAILRVIRLVRVFRIFKLSRHSKGLQILGQTLKASMRELGLLIFFLFIGVILFSSAVYFAEADDPSSGFNSIPDAFWWAVVTMTTVGYGDMHPVTIGGKIVGSLCAIAGVLTIALPVPVIVSNFNYFYHRETEGEEQAQYMHVGSCQHLSSSAEELRKARSNSTLSKSEYMVIEEGGMNHSAFPQTPFKTGNSTATCTTNNNPNSCVNIKKIFTDV
modifications: biotin on the loopBAD tag (BirA biotin ligase co-expressed)
notes: voltage-gated potassium channel Kv1.3; also called GFP-Kv1.3-loopBAD; pEGFP-Kv1.3 with loopBAD; source: HEK-293, electroporated together with BirA, on the cell surface; not shown: loopBAD (biotin acceptor domain), internal (first extracellular loop), kept
By stoichiometry N is commonly meant the number of molecules, sites or subunits per partner or assembly. Turning to B1, the “stoichiometry N” value in data set [1] is 4.

B2: Kv1.3-Apple (natural protein, UniProt P15384 1-525, looked up)
chain: B1 chain
notes: voltage-gated potassium channel Kv1.3; also called Kv1.3 tagged with mApple; source: HEK-293, electroporated, on the cell surface
For the molecule B2, in the data set with KCNE4-loopBAD-GFP, the “stoichiometry N” value is at most 4 KCNE4 per Kv1.3 channel.
